For this assay, the target named is T1, integrin αVβ5 (Homo sapiens, UniProt P06756).
T1 chain 1: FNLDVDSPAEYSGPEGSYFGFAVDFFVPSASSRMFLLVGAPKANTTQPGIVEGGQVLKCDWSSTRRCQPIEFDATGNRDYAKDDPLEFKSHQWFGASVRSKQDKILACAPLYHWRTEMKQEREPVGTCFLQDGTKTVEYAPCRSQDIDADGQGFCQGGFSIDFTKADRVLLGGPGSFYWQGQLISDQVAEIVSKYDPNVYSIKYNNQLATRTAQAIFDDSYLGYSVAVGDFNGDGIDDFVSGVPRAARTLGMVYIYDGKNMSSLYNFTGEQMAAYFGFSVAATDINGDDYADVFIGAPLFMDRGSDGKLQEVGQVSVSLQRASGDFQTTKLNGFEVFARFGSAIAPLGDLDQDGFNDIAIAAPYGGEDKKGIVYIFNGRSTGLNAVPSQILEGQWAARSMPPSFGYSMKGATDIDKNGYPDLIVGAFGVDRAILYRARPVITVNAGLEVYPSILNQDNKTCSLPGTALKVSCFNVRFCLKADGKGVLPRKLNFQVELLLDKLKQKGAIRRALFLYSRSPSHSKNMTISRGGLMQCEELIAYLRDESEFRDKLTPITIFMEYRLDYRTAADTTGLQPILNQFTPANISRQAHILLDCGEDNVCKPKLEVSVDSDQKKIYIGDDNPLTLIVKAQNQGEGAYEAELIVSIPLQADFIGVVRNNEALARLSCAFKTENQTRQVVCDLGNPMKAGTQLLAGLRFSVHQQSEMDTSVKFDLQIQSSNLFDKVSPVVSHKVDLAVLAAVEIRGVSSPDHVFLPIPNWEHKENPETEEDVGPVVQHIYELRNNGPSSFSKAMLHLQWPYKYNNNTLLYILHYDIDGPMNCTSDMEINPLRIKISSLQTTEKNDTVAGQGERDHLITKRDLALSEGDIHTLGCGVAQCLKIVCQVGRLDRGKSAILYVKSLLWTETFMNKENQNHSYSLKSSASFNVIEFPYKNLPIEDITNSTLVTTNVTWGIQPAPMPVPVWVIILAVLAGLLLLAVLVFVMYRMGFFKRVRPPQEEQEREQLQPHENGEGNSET
T1 chain 2: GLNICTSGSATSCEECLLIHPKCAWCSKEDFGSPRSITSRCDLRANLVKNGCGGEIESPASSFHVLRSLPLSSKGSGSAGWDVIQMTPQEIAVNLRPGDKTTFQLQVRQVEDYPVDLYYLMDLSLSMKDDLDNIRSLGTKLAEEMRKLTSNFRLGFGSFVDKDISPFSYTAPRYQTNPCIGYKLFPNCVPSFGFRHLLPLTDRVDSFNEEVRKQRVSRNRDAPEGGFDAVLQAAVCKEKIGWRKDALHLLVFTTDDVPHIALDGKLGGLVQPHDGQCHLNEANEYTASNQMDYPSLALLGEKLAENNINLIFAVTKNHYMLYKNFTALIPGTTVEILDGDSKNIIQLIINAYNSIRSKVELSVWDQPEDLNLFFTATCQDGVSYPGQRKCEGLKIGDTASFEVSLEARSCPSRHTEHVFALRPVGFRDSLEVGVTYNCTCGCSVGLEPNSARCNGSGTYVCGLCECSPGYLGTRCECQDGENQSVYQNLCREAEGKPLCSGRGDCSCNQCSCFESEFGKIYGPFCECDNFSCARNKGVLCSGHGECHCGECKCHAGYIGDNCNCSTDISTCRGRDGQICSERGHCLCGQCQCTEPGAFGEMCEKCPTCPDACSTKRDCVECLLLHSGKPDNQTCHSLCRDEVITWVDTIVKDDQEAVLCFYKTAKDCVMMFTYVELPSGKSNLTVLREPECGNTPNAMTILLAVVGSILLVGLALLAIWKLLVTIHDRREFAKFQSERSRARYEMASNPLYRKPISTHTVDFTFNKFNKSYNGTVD
In words: solid-phase binding assay (fluorescent immunoassay).

B1: PilY1 532-1163 (protein)
chain: AGDLTRYSLTTQDKATVQTKLWSAQSILDAMPNGGAGRKIMMAGSGTSGLKEFTWGSLSADQQRQLNRDPDRNDVADTKGQDRVAFLRGDRSKENSDNFRTRNSILGDIINSSPATVGKAQYLTYLAQPIEPSGNYSTFAEAQKTRAPRVYVGANDGMLHGFDTDGNETFAFIPSAVFEKLHKLTARGYQGGAHQFYVDGSPVVADAFFGGAWHTVLIGSLRAGGKGLFALDVTDPANIKLLWEIGVDQEPDLGYSFPKPTVARLHNGKWAVVTGNGYSSLNDKAALLIIDLETGAITRKLEVTGRTGVPNGLSSPRLADNNSDGVADYAYAGDLQGNLWRFDLIAGKVNQDDPFSRANDGPAVASSFRVSFGGQPLYSAVDSAGAAQAITAAPSLVRHPTRKGYIVIFGTGKYFENADARADTSRAQTLYGIWDQQTKGEAAGSTPRLTRGNLQQQTLDLQADSTFASTARTIRIASQNPVNWLNNDGSTKQSGWYLDFMVNGTLKGEMLIEDMIAIGQVVLLQTITPNDDPCADGASNWTYGLDPYTGGRTSFTVFDLARQGVVDSKSDYSYNKQNVAVSGTEQKGLGGLTLSTNEQGNPEVCSSGECLTVNPGPNTRGRQNWRPIEGKN
By Kd is commonly meant a measure of binding affinity in units of concentration. A lower Kd goes with higher affinity. In turn, B1 registered a Kd of 164 nM.

The record behind these values is publication PMC3248442 (2011).
